Test results reported in patent US20180369425A1, “LINKED AND OTHER pH-TRIGGERED COMPOUNDS” (priority 2017, published 2018).
Residues, ends and D or L forms follow the SMILES beside them. *: point of attachment. X1 = CC1(C)C(/C=C/C=C/C=C/C=C2/N(CCCCCC(=O)NCCN3C(=O)CC(*)C3=O)c3ccc4ccccc4c3C2(C)C)=[N+](CCCCS(=O)(=O)[O-])c2ccc3ccccc3c21

Test system: 4T1 tumor
Assay: Ex vivo NIRF imaging of organs (biodistribution and kinetics of ICG-pHLIP)
Format: in vivo, mouse
Settings: for Fluorescence intensity, Bone / Fluorescence intensity, Brain / Fluorescence intensity, Heart / Fluorescence intensity, Kidneys / Fluorescence intensity, L. Intest. / Fluorescence intensity, Liver / Fluorescence intensity, Lungs / Fluorescence intensity, Muscle / Fluorescence intensity, Pancreas / Fluorescence intensity, S. Intest. / Fluorescence intensity, Skin / Fluorescence intensity, Spleen / Fluorescence intensity, Stomach / Fluorescence intensity, Tumor: mean ± St. D., 5 animals
Experimental: BALB/cAcNHsd mice ranging in age from 5 to 6 weeks obtained from Envigo RMS Inc were used in the study. Mouse mammary 4T1 cancer cells were subcutaneously implanted in the right flank (8×10^5 cells/0.1 mL/flank) of adult female mice. Triple negative 4T1 tumor model closely mimics stage IV of human breast cancer. When tumors reached 5-6 mm in diameter, single tail vein injections of 2.5 nmol (or 0.5 mg/kg) of ICG-pHLIP in sterile PBS with 5% DMSO or 5% Ethanol (volume of the injection was 100 μl) were performed. The whole body and ex vivo imaging was performed using a Stryker 1588 AIM clinical imaging system with L10 AIM Light Source, 1588 AIM Camera using a 10 mm or 5 mm scope.
Animals were euthanized at time points: 5 min, 1 hr, 2 hrs, 4 hrs, 6 hrs, 16 hrs, 26 hrs and 48 hrs. […] 100 μl of blood was collected immediately after euthanasia and mixed with 12.5 μl of citrate-dextrose anticoagulant solution (kept at 4° C.), and necropsy was performed. Tumor, muscles, skin, heart, lungs, liver, spleen, kidneys, brain, pancreas, bone, stomach, small and large intestines were collected, imaged immediately after collection, weighed, and fast frozen in liquid nitrogen.
The ex vivo imaging of organs was performed using a Stryker 1588 AIM clinical imaging system with L10 AIM Light Source, 1588 AIM Camera using a 10 mm scope. The lens was spaced 4.3 cm away from the surface of the organs within an enclosed (light protected) area. The NIRF imaging of each organ was performed at three different laser intensities set on a hexadecimal scale as 0B-22 (low), 12-5C (medium), and 20-3A (high). The digital images of organs were processed using program written in Python to determine the average level of intensity recorded in the green channel. Since organs were imaged in the dark on black mats, the background signal was determined by introducing an intensity threshold. All the pixels with intensity from the green channel above the set threshold were counted and the average green intensity per pixel was calculated. Thus, the mean intensity per organ (Table 17a) and averaged over organs from 5 animals (Table 17b) was calculated.

CC(C)C[C@H](NC(=O)[C@H](Cc1ccc(O)cc1)NC(=O)[C@H](C)NC(=O)[C@H](CCCNC(=N)N)NC(=O)[C@H](Cc1c[nH]c2ccccc12)NC(=O)[C@@H]1CCCN1C(=O)[C@H](CC(N)=O)NC(=O)[C@H](CCC(N)=O)NC(=O)[C@H](CC(=O)O)NC(=O)[C@H](CC(=O)O)NC(=O)[C@H](CSC1CC(=O)N(CCNC(=O)CCCCCN2/C(=C/C=C/C=C/C=C/C3=[N+](CCCCS(=O)(=O)[O-])c4ccc5ccccc5c4C3(C)C)C(C)(C)c3c2ccc2ccccc32)C1=O)NC(=O)[C@H](C)N)C(=O)N[C@@H](CC(=O)O)C(=O)N[C@@H](CC(C)C)C(=O)N[C@@H](CC(C)C)C(=O)N[C@@H](Cc1ccccc1)C(=O)N1CCC[C@H]1C(=O)N[C@H](C(=O)N[C@@H](CC(=O)O)C(=O)N[C@H](C(=O)N[C@@H](CC(C)C)C(=O)N[C@@H](CC(C)C)C(=O)N[C@@H](CC(C)C)C(=O)N[C@@H](CC(=O)O)C(=O)N[C@@H](CC(C)C)C(=O)N[C@@H](CC(C)C)C(=O)N[C@@H](Cc1c[nH]c2ccccc12)C(=O)N[C@@H](C)C(=O)O)[C@@H](C)O)[C@@H](C)O (stereo partly shown) [ICG-pHLIP] (H-AC(X1)DDQNPWRAYLDLLFPTDTLLLDLLWA-OH)
time the fluorescence stays within the tumor (4T1 tumor): up to 26 hours
Fluorescence intensity, Bone (5 min p.i.): 79.4 ± 8.1 a.u.
Fluorescence intensity, Brain (5 min p.i.): 167.0 ± 22.5 a.u.
Fluorescence intensity, Heart (5 min p.i.): 198.1 ± 15.9 a.u.
Fluorescence intensity, Kidneys (5 min p.i.): 171.7 ± 18.4 a.u.
Fluorescence intensity, L. Intest. (5 min p.i.): 37.1 ± 7.9 a.u.
Fluorescence intensity, Liver (5 min p.i.): 419.8 ± 37.9 a.u.
Fluorescence intensity, Lungs (5 min p.i.): 216.6 ± 2.7 a.u.
Fluorescence intensity, Muscle (5 min p.i.): 22.2 ± 20.3 a.u.
Fluorescence intensity, Pancreas (5 min p.i.): 153.2 ± 34.7 a.u.
Fluorescence intensity, S. Intest. (5 min p.i.): 42.4 ± 12.2 a.u.
Fluorescence intensity, Skin (5 min p.i.): 27.9 ± 16.4 a.u.
Fluorescence intensity, Spleen (5 min p.i.): 154.6 ± 9.0 a.u.
Fluorescence intensity, Stomach (5 min p.i.): 91.7 ± 13.4 a.u.
Fluorescence intensity, Tumor (5 min p.i.): 36.2 ± 6.0 a.u.
Fluorescence intensity, Bone (1 hour p.i.): 74.0 ± 13.1 a.u.
Fluorescence intensity, Brain (1 hour p.i.): 137.7 ± 8.9 a.u.
Fluorescence intensity, Heart (1 hour p.i.): 179.6 ± 16.4 a.u.
Fluorescence intensity, Kidneys (1 hour p.i.): 193.7 ± 10.6 a.u.
Fluorescence intensity, L. Intest. (1 hour p.i.): 28.4 ± 17.9 a.u.
Fluorescence intensity, Liver (1 hour p.i.): 533.0 ± 16.7 a.u.
Fluorescence intensity, Lungs (1 hour p.i.): 194.7 ± 6.2 a.u.
Fluorescence intensity, Muscle (1 hour p.i.): 8.2 ± 18.2 a.u.
Fluorescence intensity, Pancreas (1 hour p.i.): 132.7 ± 24.5 a.u.
Fluorescence intensity, S. Intest. (1 hour p.i.): 71.9 ± 16.9 a.u.
Fluorescence intensity, Skin (1 hour p.i.): 39.1 ± 9.0 a.u.
Fluorescence intensity, Spleen (1 hour p.i.): 157.8 ± 4.4 a.u.
Fluorescence intensity, Stomach (1 hour p.i.): 99.1 ± 23.0 a.u.
Fluorescence intensity, Tumor (1 hour p.i.): 100.5 ± 38.5 a.u.
Fluorescence intensity, Bone (2 hours p.i.): 57.5 ± 23.4 a.u.
Fluorescence intensity, Brain (2 hours p.i.): 82.2 ± 17.4 a.u.
Fluorescence intensity, Heart (2 hours p.i.): 167.6 ± 12.2 a.u.
Fluorescence intensity, Kidneys (2 hours p.i.): 156.0 ± 14.1 a.u.
Fluorescence intensity, L. Intest. (2 hours p.i.): 6.4 ± 14.4 a.u.
Fluorescence intensity, Liver (2 hours p.i.): 542.6 ± 26.8 a.u.
Fluorescence intensity, Lungs (2 hours p.i.): 177.0 ± 10.4 a.u.
Fluorescence intensity, Muscle (2 hours p.i.): 0.0 ± 0.0 a.u.
Fluorescence intensity, Pancreas (2 hours p.i.): 89.0 ± 32.0 a.u.
Fluorescence intensity, S. Intest. (2 hours p.i.): 47.1 ± 13.9 a.u.
Fluorescence intensity, Skin (2 hours p.i.): 32.0 ± 18.1 a.u.
Fluorescence intensity, Spleen (2 hours p.i.): 136.9 ± 7.7 a.u.
Fluorescence intensity, Stomach (2 hours p.i.): 80.7 ± 18.6 a.u.
Fluorescence intensity, Tumor (2 hours p.i.): 133.9 ± 14.2 a.u.
Fluorescence intensity, Bone (4 hours p.i.): 63.1 ± 21.0 a.u.
Fluorescence intensity, Brain (4 hours p.i.): 73.8 ± 8.3 a.u.
Fluorescence intensity, Heart (4 hours p.i.): 185.6 ± 7.2 a.u.
Fluorescence intensity, Kidneys (4 hours p.i.): 185.5 ± 6.2 a.u.
Fluorescence intensity, L. Intest. (4 hours p.i.): 7.9 ± 17.6 a.u.
Fluorescence intensity, Liver (4 hours p.i.): 540.1 ± 18.8 a.u.
Fluorescence intensity, Lungs (4 hours p.i.): 187.0 ± 17.2 a.u.
Fluorescence intensity, Muscle (4 hours p.i.): 26.2 ± 24.6 a.u.
Fluorescence intensity, Pancreas (4 hours p.i.): 92.0 ± 2.5 a.u.
Fluorescence intensity, S. Intest. (4 hours p.i.): 64.9 ± 16.3 a.u.
Fluorescence intensity, Skin (4 hours p.i.): 48.2 ± 11.6 a.u.
Fluorescence intensity, Spleen (4 hours p.i.): 150.9 ± 11.4 a.u.
Fluorescence intensity, Stomach (4 hours p.i.): 108.4 ± 6.5 a.u.
Fluorescence intensity, Tumor (4 hours p.i.): 211.2 ± 15.7 a.u.
Fluorescence intensity, Bone (6 hours p.i.): 66.7 ± 16.0 a.u.
Fluorescence intensity, Brain (6 hours p.i.): 55.3 ± 11.0 a.u.
Fluorescence intensity, Heart (6 hours p.i.): 163.0 ± 8.2 a.u.
Fluorescence intensity, Kidneys (6 hours p.i.): 174.0 ± 5.0 a.u.
Fluorescence intensity, L. Intest. (6 hours p.i.): 27.1 ± 15.6 a.u.
Fluorescence intensity, Liver (6 hours p.i.): 527.1 ± 44.4 a.u.
Fluorescence intensity, Lungs (6 hours p.i.): 156.8 ± 15.9 a.u.
Fluorescence intensity, Muscle (6 hours p.i.): 0.0 ± 0.0 a.u.
Fluorescence intensity, Pancreas (6 hours p.i.): 82.2 ± 15.3 a.u.
Fluorescence intensity, S. Intest. (6 hours p.i.): 54.2 ± 11.6 a.u.
Fluorescence intensity, Skin (6 hours p.i.): 47.1 ± 13.6 a.u.
Fluorescence intensity, Spleen (6 hours p.i.): 148.1 ± 13.4 a.u.
Fluorescence intensity, Stomach (6 hours p.i.): 126.8 ± 9.9 a.u.
Fluorescence intensity, Tumor (6 hours p.i.): 198.6 ± 33.0 a.u.
Fluorescence intensity, Bone (16 hours p.i.): 66.2 ± 8.5 a.u.
Fluorescence intensity, Brain (16 hours p.i.): 35.3 ± 1.8 a.u.
Fluorescence intensity, Heart (16 hours p.i.): 129.2 ± 15.7 a.u.
Fluorescence intensity, Kidneys (16 hours p.i.): 170.6 ± 12.8 a.u.
Fluorescence intensity, L. Intest. (16 hours p.i.): 40.5 ± 4.0 a.u.
Fluorescence intensity, Liver (16 hours p.i.): 400.5 ± 34.1 a.u.
Fluorescence intensity, Lungs (16 hours p.i.): 141.3 ± 21.5 a.u.
Fluorescence intensity, Muscle (16 hours p.i.): 0.0 ± 0.0 a.u.
Fluorescence intensity, Pancreas (16 hours p.i.): 70.3 ± 30.0 a.u.
Fluorescence intensity, S. Intest. (16 hours p.i.): 83.8 ± 13.6 a.u.
Fluorescence intensity, Skin (16 hours p.i.): 76.7 ± 20.4 a.u.
Fluorescence intensity, Spleen (16 hours p.i.): 116.3 ± 25.0 a.u.
Fluorescence intensity, Stomach (16 hours p.i.): 117.3 ± 33.1 a.u.
Fluorescence intensity, Tumor (16 hours p.i.): 222.8 ± 11.0 a.u.
Fluorescence intensity, Bone (26 hours p.i.): 42.8 ± 6.4 a.u.
Fluorescence intensity, Brain (26 hours p.i.): 0.0 ± 0.0 a.u.
Fluorescence intensity, Heart (26 hours p.i.): 61.3 ± 6.6 a.u.
Fluorescence intensity, Kidneys (26 hours p.i.): 111.8 ± 7.9 a.u.
Fluorescence intensity, L. Intest. (26 hours p.i.): 0.0 ± 0.0 a.u.
Fluorescence intensity, Liver (26 hours p.i.): 213.1 ± 9.7 a.u.
Fluorescence intensity, Lungs (26 hours p.i.): 64.2 ± 13.9 a.u.
Fluorescence intensity, Muscle (26 hours p.i.): 8.6 ± 19.2 a.u.
Fluorescence intensity, Pancreas (26 hours p.i.): 30.9 ± 17.9 a.u.
Fluorescence intensity, S. Intest. (26 hours p.i.): 37.8 ± 4.7 a.u.
Fluorescence intensity, Skin (26 hours p.i.): 25.1 ± 24.8 a.u.
Fluorescence intensity, Spleen (26 hours p.i.): 48.0 ± 7.7 a.u.
Fluorescence intensity, Stomach (26 hours p.i.): 59.1 ± 13.4 a.u.
Fluorescence intensity, Tumor (26 hours p.i.): 182.6 ± 14.7 a.u.
time of maximum signal in liver (p.i.): 1 h
